The text below walks through data of US12329841B2, “Odorant-binding protein compositions, methods and uses thereof” (Universidade do Minho, priority 2020, dated 2025).

Data set [1] can be described thus: 1-AMA fluorescence binding assay in buffer. The conditions noted are these: 50 mM Tris-HCl pH 7.5 buffer, 37° C., 1 μM protein, 1-AMA ligand, Ka from Kd=1/Ka, mean of 2 independent experiments. How it is done: (§1) In an embodiment, the pure odorant-binding protein was lyophilized and used in further procedures. To determine the affinity of the odorant-binding protein to odour molecules, 1-aminoanthracene (1-AMA) was used as an odour model molecule. Increased concentrations of fluorescent ligand model 1-aminoanthracene (1-AMA) were added to 1 μM of protein, and the formation of ligand/protein complex was quantified after 1 h at 37° C. by fluorescence emission at 481 nm (excitation at 295 nm).^30 Dissociation constant (Kd) was determined from a plot of fluorescence intensity versus concentration of ligand, obtained with a standard non-linear regression method, described in Malpeli et al. (1998).^31 The affinity behaviour of protein in presence of sweat solution was performed through a competitive fluorescence assay. Here, 1 μM of protein was mixed with 2 μM of 1-AMA and incubated at 37° C. for 1 h. After this period, increased volumes of sweat solution were added to the complex and incubated at same conditions.
(§2) In a further embodiment, fluorescence emission at 481 nm (excitation at 295 nm) was recorded and the dissociation constant (Kd) calculated. The association constant (Ka) was calculated by formula Kd=1/Ka.

The nature of data set [2]: Competitive fluorescence assay with sweat solution added to 1-AMA/protein complex. The format is binding. To be noted: 37° C.; for Ka in sweat (affinity/association constant): sweat solution (AATCC 15-2009, pH 4.0-8.5), 1 μM protein + 2 μM 1-AMA, mean of 2 independent experiments. As to the method: as §1
In an embodiment, the sweat solution was prepared as indicated in AATCC method 15-2009 “Colorfastness to Perspiration”. The pH of the prepared solution varied between 4.0 and 8.5. In accordance with its composition, the sweat solution is also regarded as electrolyte solution.
as §2

The conditions of data set [3]: cited from earlier work.
Data set [4] is described as follows: Fragrance release quantified by headspace GC-MS after adding sweat solution. The conditions noted are these: for Odorific molecules released in response to human perspiration, compared with other fusion proteins based on porcine OBP: sweat pH 4.0-8.5. How it is done: In an embodiment, the release of fragrance was quantified by gas chromatography-mass spectrometry (GC-MS). Increased concentrations of fragrance were used in different vials and the fragrance in headspace quantified performing the calibration curve (area of peak vs fragrance concentration). The fragrance was incubated with the odorant-binding protein at 37° C. Sweat solution was added and the fragrance release determined after several periods of time (0.5-24 h) of perspiration exposition.

The conditions of data set [5]: particularly in the presence of a ligand; cited from earlier work.
The mark [6] stands for this setting: listed as Native porcine OBP (OBP-I).

B1: OBP::GQ20::CBM: Recombinant pig OBP fused with spacer GQ20 and carbohydrate-binding module; comparative data, SEQ ID NO. 22 (protein)
chain: QEPQPEQDPFELSGKWITSYIGSSDLEKIGENAPFQVFMRSIEFDDKESKVYLNFFSKENGICEEFSLIGTKQEGNTYDVNYAGNNKFVVSYASETALIISNINVDEEGDKTIMTGLLGKGTDIEDQDLEKFKEVTRENGIPEENIVNIIERDDCPAGQGQGQGQGQGQGQGQGQGQGQGQGQGQGQGQGQGQGQGQASPIGEGTFDDGPEGWVAYGTDGPLDTSTGALCVAVPAGSAQYGVGVVLNGVAIEEGTTYTLRYTATASTDVTVRALVGQNGAPYGTVLDTSPALTSEPRQVTETFTASATYPATPAADDPEGQIAFQLGGFSADAWTLCLDDVALDSEVEL
modifications: OBP::GQ20::CBM (recombinant protein)
B1 registered a Ka in buffer (affinity/association constant) in data set [1] of 4.17 µM⁻¹. For the same molecule, in data set [2], the “Reduction of affinity on addition of sweat solution (Ka buffer vs Ka sweat)” value (“Reduction of affinity” below) is on record as 1.3 × and the Ka in sweat (affinity/association constant) worked out at 3.16 µM⁻¹. Moreover, the “Release of fragrance in presence of sweat, value reported in state of art (ref. 25)” value in data set [3] is 1.3 ×.

B2: OBP-I: Native porcine (pig) odorant-binding protein, PDB ID 1DZK, SEQ ID NO. 1 (protein, listed as Sus scrofa)
chain: QEPQPEQDPFELSGKWITSYIGSSDLEKIGENAPFQVFMRSIEFDDKESKVYLNFFSKENGICEEFSLIGTKQEGNTYDVNYAGNNKFVVSYASETALIISNINVDEEGDKTIMTGLLGKGTDIEDQDLEKFKEVTRENGIPEENIVNIIERDDCPA
modifications: Pig OBP (PDB ID 1DZK)
With B2, the Ka in buffer (affinity/association constant) in data set [1], in data set [1] (listed as Native OBP-I) and in data set [1] (setting [6]) was 4 ± 0.03 µM⁻¹ each time. In addition, the “Reduction of affinity” value in data set [2] is reported as 20 ×. Moreover, the Ka in sweat (affinity/association constant) in data set [2] is 0.2 µM⁻¹; in data set [2] (listed as Native OBP-I), 0.2 ± 0.02 µM⁻¹; in data set [2] (setting [6]), 0.2 ± 0.02 µM⁻¹. Moreover, the “Odorific molecules released in response to human perspiration, compared with other fusion proteins based on porcine OBP” value in data set [4] is “more than 20 ×”. Besides, the “Structure stable to thermal denaturation up to (FT-IR)” value in data set [5] was “up to 80 °C”.

B3: OBP::GQ20::KP: Recombinant pig OBP fused with linker GQ 20× and KP peptide, SEQ ID NO. 21 (protein)
chain: QEPQPEQDPFELSGKWITSYIGSSDLEKIGENAPFQVFMRSIEFDDKESKVYLNFFSKENGICEEFSLIGTKQEGNTYDVNYAGNNKFVVSYASETALIISNINVDEEGDKTIMTGLLGKGTDIEDQDLEKFKEVTRENGIPEENIVNIIERDDCPAGQGQGQGQGQGQGQGQGQGQGQGQGQGQGQGQGQGQGQGQGGVCGPSPPCITT
modifications: OBP::GQ20::KP (recombinant protein)
Molecule B3 showed a Ka in buffer (affinity/association constant) in data set [1] of 4 µM⁻¹. For the same molecule, in data set [2], the “Reduction of affinity” value is on record as 6.8 × and the Ka in sweat (affinity/association constant) worked out at 0.59 µM⁻¹. The “Odorific molecules released in response to human perspiration, compared with other fusion proteins based on porcine OBP” value in data set [4] is reported as over 6.8 ×. In data set [4] (sweat versus buffer), the “More fragrance release in presence of sweat versus presence of buffer” value turned out to be 6.8 ×.
